Results on six compounds are retold here after publication PMC7162832, “An unusual metal-bound 4-fluorothreonine transaldolase from Streptomyces sp. MA37 catalyses promiscuous transaldol reactions” (Applied Microbiology and Biotechnology, 2020).

Series [1] has as its target 4-fluorothreonine transaldolase from Streptomyces sp. MA37 (Streptomyces sp. MA37) (UniProt W0W999). The experiment in a line: SEC; ENrich High-Resolution Size Exclusion Column (Bio-Rad, 25 mL), isocratic elution; oligomeric state estimated from the retention time.
Series [2] deals with T1, FTaseMA (Streptomyces sp. MA37, UniProt W0W903). Put plainly: biochemical. Set-up: gene flFT1.
From the text: acetaldehyde release, DNPH derivatisation and HPLC on FTaseMA
Series [3] deals with T1, FTaseMA. The experiment in a line: DNPH derivatisation and HPLC. Format: biochemical. Also on record: gene flFT1; full-length (SHMT-like S domain plus aldolase-like A domain), N-His6, from MA37 genomic DNA in pGM1190 (pMBC001), expressed in Streptomyces lividans 66; dimer.
The subject of series [4] is CC(C)C=O. Put plainly: purified protein. The note with it: L-threonine 5 mM, PLP 0.1 mM, Tris-HCl pH 7.5.
The subject of series [5] is O=CCCl. Put plainly: purified protein. Conditions: L-threonine 5 mM, PLP 0.1 mM, Tris-HCl pH 7.5.
Series [6] concerns O=CCF. Put plainly: purified protein. Conditions: apparent, FAd 0.12-2.4 mM, L-threonine 20 mM (methods: 0.5-20 mM aldehyde, 5 mM L-Thr), PLP 0.1 mM, Tris-HCl pH 7.5.
Series [7] has as its system O=CCc1ccccc1. The experiment in a line: purified protein. The note with it: L-threonine 5 mM, PLP 0.1 mM, Tris-HCl pH 7.5.

The term stoichiometry N denotes a count of units in the complex or per binding partner. With “4-fluorothreonine transaldolase from Streptomyces sp. MA37 (from UniProt W0W999 1-299) (enzyme)”, in series [1], the stoichiometry N is 2.
In general, Km refers to the concentration of substrate that gives half-maximal velocity. In the case of `C[C@@H](O)[C@H](N)C(=O)O` [compound 6, L-threonine], in series [2], the Km came out at 1180 ± 7 µM.
Turning to `O=CCO` [compound 9, glycolaldehyde], the Km in series [3] is 357 ± 10 µM.
On the same count and under the same terms, as for `CCC=O` [compound 11, propanal], the figure is 1450 ± 179 µM.
Consider `C[C@H](O)[C@H](N)C(=O)O` [compound 19, L-allo-threonine], for which the Michaelis constant (Km) in series [2] is 1180 ± 6 µM.
In general, kcat refers to the maximal rate divided by the concentration of active sites. Broadly, the kcat/Km is the turnover number divided by the Michaelis constant. Take FTaseMA (Streptomyces sp. MA37): the Michaelis-Menten constant (Km) was 535 ± 78 µM in series [4], 1350 ± 1 µM in series [5], 241 ± 2 µM in series [6] and 358 ± 6 µM in series [7]. For the same compound, the turnover number (kcat) is 0.0135 s⁻¹ in series [4], 0.0238 s⁻¹ in series [5], 0.03 s⁻¹ in series [6] and 0.00975 s⁻¹ in series [7]. The kcat/Km in series [4] amounted to 25.4 M⁻¹ s⁻¹; in series [5] it was 17.6 M⁻¹ s⁻¹; in series [6], 125 M⁻¹ s⁻¹; in series [7], 27.2 M⁻¹ s⁻¹.
